Laboratory results published in patent US20110263454A1, “Methods of Identifying Functional Characteristics of Promoters, Transcription Modifying Proteins and Transcription Modulating Agents” (Salk Institute for Biological Studies, priority 2008, published 2011).

Tests used:
hG6PD promoter = experiment: NHR-promoter luciferase screen, hG6PD promoter; format: cell-based, human; settings: for Luc. act., normalized to lacZ / Normalized Luc. act., normalized to control: G6PD promoter reporter, co-transfected HR, without or with its ligand; for Normalized Luc. act., normalized to control: relative to control; for luciferase activity normalized to lacZ activity and to a control, hG6PD: hG6PD promoter-luciferase, CV-1 cells, NHR +/- ligand, control = 1.00
Protocol: (§1) The use, feasibility, and reproducibility of the functional NHR-promoter screen in a 48-well format have been tested validated. Briefly, there were co-expressed 50 ng of each NHR/NHR homodimer or NHR/RXR heterodimer with 100 ng promoter/luciferase construct and 50 ng of LacZ (as a control for transfection efficiency) in CV-1 cells using Fugene HD (Roche) as a transfection reagent (alternatively or additionally, a CMV-YFP construct can be used as a transfection control). Each of the nuclear hormone receptors that were used in these experiments was cloned into a pcDNA3.1 vector and comprised a C-terminally linked V5H6 tag. Twenty-four hours after transfection, appropriate ligands were added, where applicable, (see Table 5 for various ligands and concentrations and after 48 hrs, samples were assayed for luciferase and LacZ activity. To measure for luciferase activity 15 ul of sample was added to 30 ul of luciferase buffer (20 mM tricine, 1.07 mM MgCarbonate, 2.67 mM MgSulfate, 0.1 mM Naz-EDTA, 5 mM DTT, 5 mM ATP, 0.15 mg/ml CoA, 0.5 mM Luciferin), mixed briefly, and run in a Perkin Elmer Victor 5 luminometer. Thus, the functional NHR-promoter screen was used to observe the transcriptional activity of 29 promoters from various physiological pathways including inflammation, lipid and sugar metabolism, cholesterol transport, xenobiotic metabolism, and circadian rhythm.
(§2) The promoters that facilitate transcription of the indicated gene products that were tested using the protocols described herein are listed in the first row of the table. The nuclear hormone receptors and, where applicable, ligands that were assayed for their transcriptional effects on the promoters are listed in the first column of the table. The data represent the luciferase activity of each sample normalized to both the lacZ activity of that sample and to a control, e.g., no NHR or ligand, as customary in the art. As described previously, these normalizations allow the transcriptional activity of each reporter cell to be compared to other samples.
(§3) Tables 7-40 show the transcriptional effects of the hormone receptors, and, where applicable, ligands (orphan receptors are screened without ligand), on each individual promoter. […] The control data of each table are shown in their last rows.

hMyoD promoter = experiment: NHR-promoter luciferase screen, hMyoD promoter; format: cell-based, human; settings: for Luc. act., normalized to lacZ / Normalized Luc. act., normalized to control: MyoD promoter reporter, co-transfected HR, without or with its ligand; for Normalized Luc. act., normalized to control: relative to control; for luciferase activity normalized to lacZ activity and to a control, hMyoD: hMyoD promoter-luciferase, CV-1 cells, NHR +/- ligand, control = 1.00
Protocol: as §1, §2, §3

mGhrelin promoter = experiment: NHR-promoter luciferase screen, mGhrelin promoter; format: cell-based, mouse; settings: for Luc. act., normalized to lacZ / Normalized Luc. act., normalized to control: Table 8, mGhrelin; for Results of assays of transcription factor (+/- ligand) with mGhrelin: Table 6d, luciferase activity relative to control (control = 1.00)
Protocol: as §1, §2, §3

mLeptin promoter = experiment: NHR-promoter luciferase screen, mLeptin promoter; format: cell-based, mouse; settings: for Luc. act., normalized to lacZ / Normalized Luc. act., normalized to control: Table 7, mLeptin; for Results of assays of transcription factor (+/- ligand) with mLeptin: Table 6d, luciferase activity relative to control (control = 1.00)
Protocol: as §1, §2, §3

hMDR1 promoter = experiment: NHR-promoter luciferase screen, hMDR1 promoter; format: cell-based, human; settings: for Luc. act., normalized to lacZ / Normalized Luc. act., normalized to control: MDR1 promoter, HR/ligand component; for hMDR1 promoter reporter activity: transcription factor +/- ligand, control = 1.00
Protocol: as §1, §2, §3

hPPARg2 promoter = experiment: NHR-promoter luciferase screen, hPPARg2 promoter; format: cell-based, human; settings: for Luc. act., normalized to lacZ / Normalized Luc. act., normalized to control: PPARG2 promoter, hormone receptor with or without its ligand; for Normalized Luc. act., normalized to control: relative to control; for Results of assays of transcription factor (+/- ligand) with hPPARg2: Table 6d, luciferase activity relative to control (control = 1.00)
Protocol: as §1, §2, §3

Row | Molecule | Luc. act., normalized to lacZ (hG6PD promoter) | Normalized Luc. act., normalized to control (hG6PD promoter) | luciferase activity normalized to lacZ activity and to a control, hG6PD (hG6PD promoter) | Luc. act., normalized to lacZ (hMyoD promoter) | Normalized Luc. act., normalized to control (hMyoD promoter) | luciferase activity normalized to lacZ activity and to a control, hMyoD (hMyoD promoter) | Luc. act., normalized to lacZ (mGhrelin promoter) | Normalized Luc. act., normalized to control (mGhrelin promoter) | Results of assays of transcription factor (+/- ligand) with mGhrelin (mGhrelin promoter) | Luc. act., normalized to lacZ (mLeptin promoter) | Normalized Luc. act., normalized to control (mLeptin promoter) | Results of assays of transcription factor (+/- ligand) with mLeptin (mLeptin promoter) | Luc. act., normalized to lacZ (hMDR1 promoter) | Normalized Luc. act., normalized to control (hMDR1 promoter) | hMDR1 promoter reporter activity (hMDR1 promoter) | Luc. act., normalized to lacZ (hPPARg2 promoter) | Normalized Luc. act., normalized to control (hPPARg2 promoter) | Results of assays of transcription factor (+/- ligand) with hPPARg2 (hPPARg2 promoter)
1 | RORg: RAR-related Orphan Receptor γ (NR1F3), cDNA driver (protein, UniProt P51449 1-518, looked up) Nuclear receptor ROR-gamma: MDRAPQRQHRASRELLAAKKTHTSQIEVIPCKICGDKSSGIHYGVITCEGCKGFFRRSQRCNAAYSCTRQQNCPIDRTSRNRCQHCRLQKCLALGMSRDAVKFGRMSKKQRDSLHAEVQKQLQQRQQQQQEPVVKTPPAGAQGADTLTYTLGLPDGQLPLGSSPDLPEASACPPGLLKASGSGPSYSNNLAKAGLNGASCHLEYSPERGKAEGRESFYSTGSQLTPDRCGLRFEEHRHPGLGELGQGPDSYGSPSFRSTPEAPYASLTEIEHLVQSVCKSYRETCQLRLEDLLRQRSNIFSREEVTGYQRKSMWEMWERCAHHLTEAIQYVVEFAKRLSGFMELCQNDQIVLLKAGAMEVVLVRMCRAYNADNRTVFFEGKYGGMELFRALGCSELISSIFDFSHSLSALHFSEDEIALYTALVLINAHRPGLQEKRKVEQLQYNLELAFHHHLCKTHRQSILAKLPPKGKLRSLCSQHVERLQIFQHLHPIVVQAAFPPLYKELFSTETESPVGLSK | 81.5 | 2.2 | 2.18 | 86.5 | 1.4 | 1.36 | 109.2 | 2.1 | 2.09 | 2.6 | 0.9 | 0.87 | 0.2 | 0.5 | 0.54 | 19.2 | 9.6 | 9.59
2 | RVRb: Rev-Erb β (NR1D2, alternative name RVR), cDNA driver (protein, UniProt Q14995 1-579, looked up) Nuclear receptor subfamily 1 …: MEVNAGGVIAYISSSSSASSPASCHSEGSENSFQSSSSSVPSSPNSSNSDTNGNPKNGDLANIEGILKNDRIDCSMKTSKSSAPGMTKSHSGVTKFSGMVLLCKVCGDVASGFHYGVHACEGCKGFFRRSIQQNIQYKKCLKNENCSIMRMNRNRCQQCRFKKCLSVGMSRDAVRFGRIPKREKQRMLIEMQSAMKTMMNSQFSGHLQNDTLVEHHEQTALPAQEQLRPKPQLEQENIKSSSPPSSDFAKEEVIGMVTRAHKDTFMYNQEQQENSAESMQPQRGERIPKNMEQYNLNHDHCGNGLSSHFPCSESQQHLNGQFKGRNIMHYPNGHAICIANGHCMNFSNAYTQRVCDRVPIDGFSQNENKNSYLCNTGGRMHLVCPMSKSPYVDPHKSGHEIWEEFSMSFTPAVKEVVEFAKRIPGFRDLSQHDQVNLLKAGTFEVLMVRFASLFDAKERTVTFLSGKKYSVDDLHSMGAGDLLNSMFEFSEKLNALQLSDEEMSLFTAVVLVSADRSGIENVNSVEALQETLIRALRTLIMKNHPNEASIFTKLLLKLPDLRSLNNMHSEELLAFKVHP | 55.5 | 1.5 | 1.48 | 80.9 | 1.3 | 1.28 | 126.8 | 2.4 | 2.43 | 4.4 | 1.5 | 1.50 | 0.3 | 0.9 | 0.94 | 1.0 | 0.5 | 0.48
3 | RVRa: Rev-Erb α (NR1D1), cDNA driver (protein, UniProt P20393 1-614, looked up) Nuclear receptor subfamily 1 …: MTTLDSNNNTGGVITYIGSSGSSPSRTSPESLYSDNSNGSFQSLTQGCPTYFPPSPTGSLTQDPARSFGSIPPSLSDDGSPSSSSSSSSSSSSFYNGSPPGSLQVAMEDSSRVSPSKSTSNITKLNGMVLLCKVCGDVASGFHYGVHACEGCKGFFRRSIQQNIQYKRCLKNENCSIVRINRNRCQQCRFKKCLSVGMSRDAVRFGRIPKREKQRMLAEMQSAMNLANNQLSSQCPLETSPTQHPTPGPMGPSPPPAPVPSPLVGFSQFPQQLTPPRSPSPEPTVEDVISQVARAHREIFTYAHDKLGSSPGNFNANHASGSPPATTPHRWENQGCPPAPNDNNTLAAQRHNEALNGLRQAPSSYPPTWPPGPAHHSCHQSNSNGHRLCPTHVYAAPEGKAPANSPRQGNSKNVLLACPMNMYPHGRSGRTVQEIWEDFSMSFTPAVREVVEFAKHIPGFRDLSQHDQVTLLKAGTFEVLMVRFASLFNVKDQTVMFLSRTTYSLQELGAMGMGDLLSAMFDFSEKLNSLALTEEELGLFTAVVLVSADRSGMENSASVEQLQETLLRALRALVLKNRPLETSRFTKLLLKLPDLRTLNNMHSEKLLSFRVDAQ | 45.9 | 1.2 | 1.23 | 75.0 | 1.2 | 1.18 | 79.3 | 1.5 | 1.52 | 2.5 | 0.9 | 0.86 | 0.2 | 0.6 | 0.64 | 1.5 | 0.8 | 0.76
4 | RARa: Retinoic acid receptor α (NR1B1), nuclear hormone receptor cDNA driver (protein, UniProt P10276 1-462, looked up) Retinoic acid receptor alpha: MASNSSSCPTPGGGHLNGYPVPPYAFFFPPMLGGLSPPGALTTLQHQLPVSGYSTPSPATIETQSSSSEEIVPSPPSPPPLPRIYKPCFVCQDKSSGYHYGVSACEGCKGFFRRSIQKNMVYTCHRDKNCIINKVTRNRCQYCRLQKCFEVGMSKESVRNDRNKKKKEVPKPECSESYTLTPEVGELIEKVRKAHQETFPALCQLGKYTTNNSSEQRVSLDIDLWDKFSELSTKCIIKTVEFAKQLPGFTTLTIADQITLLKAACLDILILRICTRYTPEQDTMTFSDGLTLNRTQMHNAGFGPLTDLVFAFANQLLPLEMDDAETGLLSAICLICGDRQDLEQPDRVDMLQEPLLEALKVYVRKRRPSRPHMFPKMLMKITDLRSISAKGAERVITLKMEIPGSMPPLIQEMLENSEGLDTLSGQPGGGGRDGGGLAPPPGSCSPSLSPSSNRSSPATHSP | 57.1 | 1.5 | 1.53 | 99.3 | 1.6 | 1.57 | 67.2 | 1.3 | 1.29 | 2.4 | 0.8 | 0.82 | 0.2 | 0.7 | 0.67 | 3.5 | 1.7 | 1.73
